Laboratory results as given in article PMC11259713, “Splicing factor hnRNPA1 regulates alternative splicing of LOXL2 to enhance the production of LOXL2Δ13”.

Tests used:
Conditions in all cases: protein: recombinant; tags: His (pET-32a vector)
hnRNPA1-His (hnRNPA1A) [1] = target: T1, hnRNPA1-His (hnRNPA1A) (UniProt P09651-2 1-320); assay: pull-down; purified protein; BLI: PBS, 0.002% Tween-20, 0.02% BSA, temperature not stated; pull-down: lysate in 150 mM KCl, 0.5 mM DTT, 0.5% NP-40, 25 mM Tris-HCl pH 7.5, 4 C overnight
T1 sequence (P09651 other isoform, or with tags, fused parts or gaps): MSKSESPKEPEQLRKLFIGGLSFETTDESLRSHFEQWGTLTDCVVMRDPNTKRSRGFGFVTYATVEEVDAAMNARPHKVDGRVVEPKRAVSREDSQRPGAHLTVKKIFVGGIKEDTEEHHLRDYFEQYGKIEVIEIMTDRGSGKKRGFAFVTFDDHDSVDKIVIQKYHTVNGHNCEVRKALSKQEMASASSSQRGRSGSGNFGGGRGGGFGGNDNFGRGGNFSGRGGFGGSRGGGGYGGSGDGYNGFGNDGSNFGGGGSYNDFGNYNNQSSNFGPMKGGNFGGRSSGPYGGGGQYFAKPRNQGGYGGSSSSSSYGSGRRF

hnRNPA1-His (hnRNPA1A) [2] = target: T1, hnRNPA1-His (hnRNPA1A); assay: BLI; RNA on streptavidin probe; lower KD than oligo2 but less protein bound; value only in figure; BLI: PBS, 0.002% Tween-20, 0.02% BSA, temperature not stated; pull-down: lysate in 150 mM KCl, 0.5 mM DTT, 0.5% NP-40, 25 mM Tris-HCl pH 7.5, 4 C overnight
S91D/S95D-His = S91D/S95D-His (UniProt P09651-2 1-320, S91D;S95D); assay: BLI; similar or stronger affinity than WT but reduced binding amount; KD only in figure; BLI: PBS, 0.002% Tween-20, 0.02% BSA, temperature not stated; pull-down: lysate in 150 mM KCl, 0.5 mM DTT, 0.5% NP-40, 25 mM Tris-HCl pH 7.5, 4 C overnight
Sequence of S91D/S95D-His (P09651 other isoform, or with tags, fused parts or gaps S91D;S95D | S91D S95D S91D S95D): as the sequence (P09651 other isoform, or with tags, fused parts or gaps) above, with S91D, S95D counted along it

hnRNPA1-His (hnRNPA1A) [3] = target: T1, hnRNPA1-His (hnRNPA1A); assay: BLI; protein on Ni-NTA probe; KD only in figure; BLI: PBS, 0.002% Tween-20, 0.02% BSA, temperature not stated; pull-down: lysate in 150 mM KCl, 0.5 mM DTT, 0.5% NP-40, 25 mM Tris-HCl pH 7.5, 4 C overnight
S91A/S95A-His = S91A/S95A-His (UniProt P09651-2 1-320, S91A;S95A); assay: BLI; protein on Ni-NTA probe; affinity and amount higher than WT; KD only in figure; BLI: PBS, 0.002% Tween-20, 0.02% BSA, temperature not stated; pull-down: lysate in 150 mM KCl, 0.5 mM DTT, 0.5% NP-40, 25 mM Tris-HCl pH 7.5, 4 C overnight
Sequence of S91A/S95A-His (P09651 other isoform, or with tags, fused parts or gaps S91A;S95A | S91A S95A S91A S95A): as the sequence (P09651 other isoform, or with tags, fused parts or gaps) above, with S91A, S95A counted along it

AGCAGCCUCCUCUGCCCUGCUUCUCCCUAGGUUGUU (ssRNA) [oligo1]: binds (hnRNPA1-His (hnRNPA1A) [1]).

ACAACUGCCACACCGGUAAGGCCAGGCCGC (ssRNA) [oligo2-U13C+A14C]: binds (hnRNPA1-His (hnRNPA1A) [2]).

ACAACUGCCACAUAGGUAAGGCCAGGCCGC (ssRNA) [oligo2]: binds (S91D/S95D-His); binds (hnRNPA1-His (hnRNPA1A) [3]); binds (S91A/S95A-His).
